Data published in US20090298765A1 (Takeda / Millennium, published 2009).
Where two headings read alike, the source gives them in different places. Non-standard residues stand in square brackets, D forms with d. No end group written: not given here. *: point of attachment. 2‑(indol-3-yl)ethylcarbamoyl = O=C(NCCc1c[nH]c2ccccc12)*; Propanoyl(3-indol-3-yl) = O=C(CCc1c[nH]c2ccccc12)*; Diphenylacetyl = O=C(C(c1ccccc1)c1ccccc1)*; indole‑3‑carbonyl = O=C(c1c[nH]c2ccccc12)*; indole‑3‑acetyl = O=C(Cc1c[nH]c2ccccc12)*; Arg(Me) = CNC(=N)NCCC[C@H](N)C(=O)O; Arg(n-Pr) = n-propylated arginine; Hydrocinnamoyl = O=C(CCc1ccccc1)*; Orn = NCCC[C@H](N)C(=O)O; azaGly = NNC(=O)O

Experiments:
[1] = target: T1, human OT7T175 (metastin receptor) (human, UniProt Q969F8 1-398); assay: cell-based or functional assay
T1 sequence (Q969F8 whole entry L364H): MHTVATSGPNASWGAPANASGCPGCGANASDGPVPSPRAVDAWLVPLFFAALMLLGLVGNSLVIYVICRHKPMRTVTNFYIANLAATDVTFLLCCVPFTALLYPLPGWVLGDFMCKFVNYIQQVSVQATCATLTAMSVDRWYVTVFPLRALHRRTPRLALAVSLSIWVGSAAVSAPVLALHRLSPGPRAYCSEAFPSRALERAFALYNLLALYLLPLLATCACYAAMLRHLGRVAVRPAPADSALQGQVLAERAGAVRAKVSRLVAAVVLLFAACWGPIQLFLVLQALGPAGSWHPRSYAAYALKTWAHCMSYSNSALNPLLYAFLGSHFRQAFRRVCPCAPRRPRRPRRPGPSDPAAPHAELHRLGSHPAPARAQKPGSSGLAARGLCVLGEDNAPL

[2] = target: T1, human OT7T175 (metastin receptor); assay: competition with Cy-5 metastin (40-54) on hOT7T175-CHO cells, FMAT
[3] = target: T1, human OT7T175 (metastin receptor); assay: cell-based or functional assay; remark: listed apart in the source
[4] = target: T1, human OT7T175 (metastin receptor); assay: cell-based or functional assay; remark: listed apart in the source

B1: des(1-3)-2-(Indol-3-yl)ethylcarbamoyl-[AzaGly7,Arg(Me)9]MS10 (peptide)
peptide: {2‑(indol-3-yl)ethylcarbamoyl}-NSF[azaGly]L[Arg(Me)]F-NH2
SMILES: CNC(=N)NCCC[C@H](NC(=O)[C@H](CC(C)C)NC(=O)NNC(=O)[C@H](Cc1ccccc1)NC(=O)[C@H](CO)NC(=O)[C@H](CC(N)=O)NC(=O)NCCc1c[nH]c2ccccc12)C(=O)N[C@@H](Cc1ccccc1)C(N)=O
notes: also called Compound No. 279
- Ca ion level-increasing activity (FLIPR, 40 s) [1]: 6.4 EC50/MS10 EC50
- IC50 [2]: 29 nM
- Ca ion level-increasing activity (FLIPR) [3]: 5 x Metastin (1-54)

B2: [D-Tyr1,Gln4,Arg(Me)9]MS10 (peptide)
peptide: [dY]NWQSFGL[Arg(Me)]F-NH2
modifications: N-terminus assumed
SMILES: CNC(=N)NCCC[C@H](NC(=O)[C@H](CC(C)C)NC(=O)CNC(=O)[C@H](Cc1ccccc1)NC(=O)[C@H](CO)NC(=O)[C@H](CCC(N)=O)NC(=O)[C@H](Cc1c[nH]c2ccccc12)NC(=O)[C@H](CC(N)=O)NC(=O)[C@H](N)Cc1ccc(O)cc1)C(=O)N[C@@H](Cc1ccccc1)C(N)=O
- Ca ion level-increasing activity (FLIPR) [4]: 0.5 x Metastin (1-54)

Binder: YNWNSFGLXF (Nar9; C-terminal amide, also called Compound No. 310) [[Nar9]MS10]
- Ca ion level-increasing activity (FLIPR, 40 s) [1]: 2 EC50/MS10 EC50
- IC50 [2]: 310 nM
- Ca ion level-increasing activity (FLIPR) [3]: 3 x Metastin (1-54)

Binder: [dY]NWNSFGL[Arg(Me)]F-NH2 (also: bond 6-7 CONH replaced by CSNH (thioamide), also called Compound No. 296) [[6Ψ7,CSNH,D-Tyr1,Arg(Me)9]MS10]
- Ca ion level-increasing activity (FLIPR, 40 s) [1]: 5.2 EC50/MS10 EC50
- IC50 [2]: 14 nM
- Ca ion level-increasing activity (FLIPR) [3]: 3 x Metastin (1-54)

B3: des(1-3)-Diphenylacetyl-[AzaGly7,Arg(Me)9]MS10 (peptide)
peptide: Diphenylacetyl-NSF[azaGly]L[Arg(Me)]F-NH2
SMILES: CNC(=N)NCCC[C@H](NC(=O)[C@H](CC(C)C)NC(=O)NNC(=O)[C@H](Cc1ccccc1)NC(=O)[C@H](CO)NC(=O)[C@H](CC(N)=O)NC(=O)C(c1ccccc1)c1ccccc1)C(=O)N[C@@H](Cc1ccccc1)C(N)=O
notes: also called Compound No. 268
- Ca ion level-increasing activity (FLIPR, 40 s) [1]: 4.5 EC50/MS10 EC50
- IC50 [2]: 550 nM
- Ca ion level-increasing activity (FLIPR) [3]: 1 x Metastin (1-54)

Binder: [dY][dN]WNSF[azaGly]L[Arg(Me)]F-NH2 (also called Compound No. 237) [[D-Tyr1,D-Asn2,AzaGly7,Arg(Me)9]MS10]
- Ca ion level-increasing activity (FLIPR) [4]: 3 x Metastin (1-54)
- IC50 [2]: 27 nM

Binder: Hydrocinnamoyl-NSF[azaGly]L[Arg(Me)]F-NH2 (also called Compound No. 269) [des(1-3)-3-Phenylpropionyl-[AzaGly7,Arg(Me)9]MS10]
- Ca ion level-increasing activity (FLIPR, 40 s) [1]: 3.4 EC50/MS10 EC50
- IC50 [2]: 470 nM
- Ca ion level-increasing activity (FLIPR) [3]: 3 x Metastin (1-54)

B4: des(1-3)-Indole-3-acetyl-[AzaGly7,Arg(Me)9]MS10 (peptide)
peptide: {indole‑3‑acetyl}-NSF[azaGly]L[Arg(Me)]F-NH2
SMILES: CNC(=N)NCCC[C@H](NC(=O)[C@H](CC(C)C)NC(=O)NNC(=O)[C@H](Cc1ccccc1)NC(=O)[C@H](CO)NC(=O)[C@H](CC(N)=O)NC(=O)Cc1c[nH]c2ccccc12)C(=O)N[C@@H](Cc1ccccc1)C(N)=O
notes: also called Compound No. 266
- Ca ion level-increasing activity (FLIPR, 40 s) [1]: 5.4 EC50/MS10 EC50
- IC50 [2]: 230 nM
- Ca ion level-increasing activity (FLIPR) [3]: 2 x Metastin (1-54)

Binder: {indole‑3‑carbonyl}-NSF[azaGly]L[Arg(Me)]F-NH2 (also called Compound No. 265) [des(1-3)-Indole-3-carbonyl-[AzaGly7,Arg(Me)9]MS10]
- Ca ion level-increasing activity (FLIPR, 40 s) [1]: 4.4 EC50/MS10 EC50
- IC50 [2]: 95 nM
- Ca ion level-increasing activity (FLIPR) [3]: 3 x Metastin (1-54)

B5: des(1-5)-3-(3-Indolyl)propionyl-[AzaGly7,Arg(Me)9]MS10 (peptide)
peptide: {Propanoyl(3-indol-3-yl)}-F[azaGly]L[Arg(Me)]F-NH2
SMILES: CNC(=N)NCCC[C@H](NC(=O)[C@H](CC(C)C)NC(=O)NNC(=O)[C@H](Cc1ccccc1)NC(=O)CCc1c[nH]c2ccccc12)C(=O)N[C@@H](Cc1ccccc1)C(N)=O
- Ca ion level-increasing activity (FLIPR, 40 s) [1]: 5.9 EC50/MS10 EC50
- Ca ion level-increasing activity (FLIPR) [3]: 2 x Metastin (1-54)

B6: [Orn9]MS10 (peptide)
peptide: YNWNSFGL[Orn]F-NH2
modifications: N-terminus assumed
SMILES: CC(C)C[C@H](NC(=O)CNC(=O)[C@H](Cc1ccccc1)NC(=O)[C@H](CO)NC(=O)[C@H](CC(N)=O)NC(=O)[C@H](Cc1c[nH]c2ccccc12)NC(=O)[C@H](CC(N)=O)NC(=O)[C@@H](N)Cc1ccc(O)cc1)C(=O)N[C@@H](CCCN)C(=O)N[C@@H](Cc1ccccc1)C(N)=O
notes: also called Compound No. 314
- Ca ion level-increasing activity (FLIPR, 40 s) [1]: 4.4 EC50/MS10 EC50
- IC50 [2]: 470 nM
- Ca ion level-increasing activity (FLIPR) [3]: 1 x Metastin (1-54)

Binder: YNWNSFGLXF (Nar(Me)9; C-terminal amide, also called Compound No. 311) [[Nar(Me)9]MS10]
- Ca ion level-increasing activity (FLIPR, 40 s) [1]: 6.2 EC50/MS10 EC50
- IC50 [2]: 470 nM
- Ca ion level-increasing activity (FLIPR) [3]: 1 x Metastin (1-54)

B7: [D-Tyr1,Ser4,Arg(Me)9]MS10 (peptide)
peptide: [dY]NWSSFGL[Arg(Me)]F-NH2
modifications: N-terminus assumed
SMILES: CNC(=N)NCCC[C@H](NC(=O)[C@H](CC(C)C)NC(=O)CNC(=O)[C@H](Cc1ccccc1)NC(=O)[C@H](CO)NC(=O)[C@H](CO)NC(=O)[C@H](Cc1c[nH]c2ccccc12)NC(=O)[C@H](CC(N)=O)NC(=O)[C@H](N)Cc1ccc(O)cc1)C(=O)N[C@@H](Cc1ccccc1)C(N)=O
- Ca ion level-increasing activity (FLIPR) [4]: 0.5 x Metastin (1-54)

B8: des(1)-[D-Asn2,Arg(Me)9]MS10 (peptide)
peptide: [dN]WNSFGL[Arg(Me)]F-NH2
modifications: N-terminus assumed
SMILES: CNC(=N)NCCC[C@H](NC(=O)[C@H](CC(C)C)NC(=O)CNC(=O)[C@H](Cc1ccccc1)NC(=O)[C@H](CO)NC(=O)[C@H](CC(N)=O)NC(=O)[C@H](Cc1c[nH]c2ccccc12)NC(=O)[C@H](N)CC(N)=O)C(=O)N[C@@H](Cc1ccccc1)C(N)=O
notes: also called Compound No. 216
- Ca ion level-increasing activity (FLIPR) [4]: 1 x Metastin (1-54)
- IC50 [2]: 700 nM

B9: des(1)-[D-Asn2,D-Trp3,Arg(Me)9]MS10 (peptide)
peptide: [dN][dW]NSFGL[Arg(Me)]F-NH2
modifications: N-terminus assumed
SMILES: CNC(=N)NCCC[C@H](NC(=O)[C@H](CC(C)C)NC(=O)CNC(=O)[C@H](Cc1ccccc1)NC(=O)[C@H](CO)NC(=O)[C@H](CC(N)=O)NC(=O)[C@@H](Cc1c[nH]c2ccccc12)NC(=O)[C@H](N)CC(N)=O)C(=O)N[C@@H](Cc1ccccc1)C(N)=O
notes: also called Compound No. 225
- Ca ion level-increasing activity (FLIPR) [4]: 1 x Metastin (1-54)
- IC50 [2]: 410 nM

B10: des(1)-[D-Tyr2,Phe3,AzaGly7,Arg(Me)9]MS10 (peptide)
peptide: [dY]FNSF[azaGly]L[Arg(Me)]F-NH2
modifications: N-terminus assumed
SMILES: CNC(=N)NCCC[C@H](NC(=O)[C@H](CC(C)C)NC(=O)NNC(=O)[C@H](Cc1ccccc1)NC(=O)[C@H](CO)NC(=O)[C@H](CC(N)=O)NC(=O)[C@H](Cc1ccccc1)NC(=O)[C@H](N)Cc1ccc(O)cc1)C(=O)N[C@@H](Cc1ccccc1)C(N)=O
notes: also called Compound No. 254
- Ca ion level-increasing activity (FLIPR) [4]: 1 x Metastin (1-54)
- IC50 [2]: 11 nM

B11: des(1)-[D-Tyr2,Thr3,Arg(Me)9]MS10 (peptide)
peptide: [dY]TNSFGL[Arg(Me)]F-NH2
modifications: N-terminus assumed
SMILES: CNC(=N)NCCC[C@H](NC(=O)[C@H](CC(C)C)NC(=O)CNC(=O)[C@H](Cc1ccccc1)NC(=O)[C@H](CO)NC(=O)[C@H](CC(N)=O)NC(=O)[C@@H](NC(=O)[C@H](N)Cc1ccc(O)cc1)[C@@H](C)O)C(=O)N[C@@H](Cc1ccccc1)C(N)=O
notes: also called Compound No. 227
- Ca ion level-increasing activity (FLIPR) [4]: 1 x Metastin (1-54)
- IC50 [2]: 48 nM

B12: des(1)-[D-Tyr2,Ser3,Arg(Me)9]MS10 (peptide)
peptide: [dY]SNSFGL[Arg(Me)]F-NH2
modifications: N-terminus assumed
SMILES: CNC(=N)NCCC[C@H](NC(=O)[C@H](CC(C)C)NC(=O)CNC(=O)[C@H](Cc1ccccc1)NC(=O)[C@H](CO)NC(=O)[C@H](CC(N)=O)NC(=O)[C@H](CO)NC(=O)[C@H](N)Cc1ccc(O)cc1)C(=O)N[C@@H](Cc1ccccc1)C(N)=O
notes: also called Compound No. 226
- Ca ion level-increasing activity (FLIPR) [4]: 1 x Metastin (1-54)
- IC50 [2]: 100 nM

B13: des(1)-[D-Tyr2,Ile3,Arg(Me)9]MS10 (peptide)
peptide: [dY]INSFGL[Arg(Me)]F-NH2
modifications: N-terminus assumed
SMILES: CC[C@H](C)[C@H](NC(=O)[C@H](N)Cc1ccc(O)cc1)C(=O)N[C@@H](CC(N)=O)C(=O)N[C@@H](CO)C(=O)N[C@@H](Cc1ccccc1)C(=O)NCC(=O)N[C@@H](CC(C)C)C(=O)N[C@@H](CCCNC(=N)NC)C(=O)N[C@@H](Cc1ccccc1)C(N)=O
notes: also called Compound No. 228
- Ca ion level-increasing activity (FLIPR) [4]: 5 x Metastin (1-54)
- IC50 [2]: 40 nM

B14: [D-Tyr1,D-Asn2,Thr5,AzaGly7,Arg(Me)9]MS10 (peptide)
peptide: [dY][dN]WNTF[azaGly]L[Arg(Me)]F-NH2
modifications: N-terminus assumed
SMILES: CNC(=N)NCCC[C@H](NC(=O)[C@H](CC(C)C)NC(=O)NNC(=O)[C@H](Cc1ccccc1)NC(=O)[C@@H](NC(=O)[C@H](CC(N)=O)NC(=O)[C@H](Cc1c[nH]c2ccccc12)NC(=O)[C@@H](CC(N)=O)NC(=O)[C@H](N)Cc1ccc(O)cc1)[C@@H](C)O)C(=O)N[C@@H](Cc1ccccc1)C(N)=O
notes: also called Compound No. 298
- Ca ion level-increasing activity (FLIPR, 40 s) [1]: 1.8 EC50/MS10 EC50
- IC50 [2]: 0.25 nM
- Ca ion level-increasing activity (FLIPR) [3]: 5 x Metastin (1-54)

B15: [D-Tyr1,Thr5,AzaGly7,Arg(Me)9]MS10 (peptide)
peptide: [dY]NWNTF[azaGly]L[Arg(Me)]F-NH2
modifications: N-terminus assumed
SMILES: CNC(=N)NCCC[C@H](NC(=O)[C@H](CC(C)C)NC(=O)NNC(=O)[C@H](Cc1ccccc1)NC(=O)[C@@H](NC(=O)[C@H](CC(N)=O)NC(=O)[C@H](Cc1c[nH]c2ccccc12)NC(=O)[C@H](CC(N)=O)NC(=O)[C@H](N)Cc1ccc(O)cc1)[C@@H](C)O)C(=O)N[C@@H](Cc1ccccc1)C(N)=O
notes: also called Compound No. 297
- Ca ion level-increasing activity (FLIPR, 40 s) [1]: 5.5 EC50/MS10 EC50
- IC50 [2]: 0.93 nM
- Ca ion level-increasing activity (FLIPR) [3]: 1 x Metastin (1-54)

Binder: [dY]NWNSFGL[Arg(n-Pr)]F-NH2 [[D-Tyr1,Arg(n-Pr)9]MS10]
- Ca ion level-increasing activity (FLIPR) [4]: 0.5 x Metastin (1-54)

Binder: {Propanoyl(3-indol-3-yl)}-NSF[azaGly]L[Arg(Me)]F-NH2 (also: also named 1-(3-indolyl)propionyl cap, also called Compound No. 260) [des(1-3)-3-(3-Indolyl)propionyl-[AzaGly7,Arg(Me)9]MS10]
- Ca ion level-increasing activity (FLIPR, 40 s) [1]: 4.3 EC50/MS10 EC50
- IC50 [2]: 320 nM
- Ca ion level-increasing activity (FLIPR) [3]: 5 x Metastin (1-54)
